Numbered stars: 1 amine (or outer) side, 2 acyl side, 3 side chain; on linkers, the order of the positions; unused ones are H or OH. Square brackets hold non-standard residues; d marks the D form. Side chains are listed from the residue outwards. Ends that are not written are not given here. γGlu = O=C(O)[C@H](CCC(=O)[*:2])N[*:1]; x53 = not defined here; Aib = CC(C)(N)C(=O)O
The binders below were run against human glucagon receptor (human, UniProt P47871 26-477) (assay: cell-based or functional assay).
Sequence of human glucagon receptor (P47871 26-477): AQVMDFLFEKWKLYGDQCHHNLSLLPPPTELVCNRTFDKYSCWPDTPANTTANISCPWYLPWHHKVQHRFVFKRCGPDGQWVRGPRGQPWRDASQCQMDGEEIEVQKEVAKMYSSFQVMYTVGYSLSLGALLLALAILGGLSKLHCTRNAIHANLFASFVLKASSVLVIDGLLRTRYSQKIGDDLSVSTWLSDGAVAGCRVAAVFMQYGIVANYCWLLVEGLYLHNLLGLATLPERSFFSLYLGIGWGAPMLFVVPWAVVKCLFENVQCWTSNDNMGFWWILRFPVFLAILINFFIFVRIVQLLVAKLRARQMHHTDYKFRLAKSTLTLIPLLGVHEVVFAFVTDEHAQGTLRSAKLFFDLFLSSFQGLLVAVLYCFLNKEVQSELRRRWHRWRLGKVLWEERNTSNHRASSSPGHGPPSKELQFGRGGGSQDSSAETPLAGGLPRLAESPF

Row | Binder | EC50 hGlucagon-R (cAMP)
1 | H[Aib]QGTFTSDLSKQK([γGlu-x53])ESRRAQDFIEWLKAGGPSSGAPPPS-NH2 (reading uncertain) [SEQ ID NO: 77] | 11.9 pM
2 | HXQGTFTSDLSKQKESRRAQLFIEWLKAGGPSSGAPPPSK (dSer at 2; K(γE-x53) at 14; K(γE-x53) at 40; C-terminal NH2) [SEQ ID NO: 6] | 18.9 pM
3 | HXQGTFTSDLSKQKESRAAQDFIEWLKAGGPSSGAPPPS (dSer at 2; K(γE-x70) at 14; C-terminal NH2) [SEQ ID NO: 51] | 3 pM
4 | HXQGTFTSDLSKQKESRAAQDFIEWLKAGGPSSGAPPPS (dSer at 2; K(γE-x76) at 14; C-terminal NH2) [SEQ ID NO: 59] | 6.8 pM
5 | HXQGTFTSDLSKQKESRRAXDFIEWLKAGGPSSGAPPPS (dSer at 2; K(x53) at 14; Aib at 20; C-terminal NH2) [SEQ ID NO: 76] | 162 pM
6 | HXQGTFTSDLSKQKESRRAQLFIEWLKAGGPSSGAPPPS (dSer at 2; K(γE-x53) at 14; C-terminal NH2) [SEQ ID NO: 68] | 5.7 pM
7 | HXQGTFTSDLSKQKESRRAQLFIEWLKAGGPSSGAPPPS (dSer at 2; K(x53) at 14; C-terminal NH2) [SEQ ID NO: 69] | 52.4 pM
8 | HXQGTFTSDLSKQKESRAAQDFIEWLKAGGPSSGAPPPS (dSer at 2; K(GABA-x70) at 14; C-terminal NH2) [SEQ ID NO: 53] | 6.5 pM
9 | HXQGTFTSDLSKQKESRAAQDFIEWLKAGGPSSGAPPPS (dSer at 2; K(γE-x79) at 14; C-terminal NH2) [SEQ ID NO: 61] | 16 pM
10 | HXQGTFTSDLSKQKESRAAQDFIEWLKAGGPSSGAPPPS (dSer at 2; K(GABA-x74) at 14; C-terminal NH2) [SEQ ID NO: 56] | 29.3 pM
11 | HXQGTFTSDLSKQKESRAAQDFIEWLKAGGPSSGAPPPS (dSer at 2; K(γE-x75) at 14; C-terminal NH2) [SEQ ID NO: 9] | 4.1 pM
12 | HXQGTFTSDLSKQKESRAAQDFIEWLKAGGPSSGAPPPS (dSer at 2; K(x53) at 14; C-terminal NH2) [SEQ ID NO: 66] | 113 pM
13 | HXQGTFTSDLSKQKDSRRAQDFIEWLKNGGPSSGAPPPS (dSer at 2; K(γE-x70) at 14; C-terminal NH2) [SEQ ID NO: 8] | 2.3 pM
14 | HXQGTFTSDLSKQKDSRRAXDFIEWLKAGGPSSGAPPPS (dSer at 2; K(γE-x53) at 14; Aib at 20; C-terminal NH2) [SEQ ID NO: 67] | 3 pM
15 | HXQGTFTSDLSKQKESRAAQDFIEWLKAGGPSSGAPPPS (dSer at 2; K(γE-x77) at 14; C-terminal NH2) [SEQ ID NO: 60] | 19.3 pM
16 | HXHGTFTSDLSKQKESRRAQDFIEWLKAGGPSSGAPPPS (dSer at 2; K(γE-x53) at 14; C-terminal NH2) [SEQ ID NO: 73] | 1.7 pM
17 | HXQGTFTSDLSKQKESRAAQDFIEWLKAGGPSSGAPPPS (dSer at 2; K(γE-x70) at 14; C-terminal NH2) [SEQ ID NO: 65] | 5.6 pM
18 | HXQGTFTSDLSKQKESRRAQDFIEWLKEGGPSSGRPPPS (dSer at 2; K(γE-x53) at 14; C-terminal NH2) [SEQ ID NO: 82] | 4.7 pM

Each binder was assayed against human GLP-1 receptor (human, UniProt P43220 24-463) (assay: cell-based or functional assay).

Row | Binder | EC50 hGLP-1R (cAMP)
19 | H[Aib]QGTFTSDLSKQK([γGlu-x53])ESRRAQDFIEWLKAGGPSSGAPPPS-NH2 (reading uncertain) [SEQ ID NO: 77] | 4.3 pM
20 | HXQGTFTSDLSKQKESRRAQLFIEWLKAGGPSSGAPPPSK (dSer at 2; K(γE-x53) at 14; K(γE-x53) at 40; C-terminal NH2) [SEQ ID NO: 6] | 141 pM
21 | HXQGTFTSDLSKQKESRAAQDFIEWLKAGGPSSGAPPPS (dSer at 2; K(γE-x70) at 14; C-terminal NH2) [SEQ ID NO: 51] | 2.7 pM
22 | HXQGTFTSDLSKQKESRAAQDFIEWLKAGGPSSGAPPPS (dSer at 2; K(γE-x76) at 14; C-terminal NH2) [SEQ ID NO: 59] | 7.9 pM
23 | HXQGTFTSDLSKQKESRRAXDFIEWLKAGGPSSGAPPPS (dSer at 2; K(x53) at 14; Aib at 20; C-terminal NH2) [SEQ ID NO: 76] | 44.9 pM
24 | HXQGTFTSDLSKQKESRRAQLFIEWLKAGGPSSGAPPPS (dSer at 2; K(γE-x53) at 14; C-terminal NH2) [SEQ ID NO: 68] | 7.9 pM
25 | HXQGTFTSDLSKQKESRRAQLFIEWLKAGGPSSGAPPPS (dSer at 2; K(x53) at 14; C-terminal NH2) [SEQ ID NO: 69] | 44.8 pM
26 | HXQGTFTSDLSKQKESRAAQDFIEWLKAGGPSSGAPPPS (dSer at 2; K(GABA-x70) at 14; C-terminal NH2) [SEQ ID NO: 53] | 5.4 pM
27 | HXQGTFTSDLSKQKESRAAQDFIEWLKAGGPSSGAPPPS (dSer at 2; K(γE-x79) at 14; C-terminal NH2) [SEQ ID NO: 61] | 5.3 pM
28 | HXQGTFTSDLSKQKESRAAQDFIEWLKAGGPSSGAPPPS (dSer at 2; K(GABA-x74) at 14; C-terminal NH2) [SEQ ID NO: 56] | 4.5 pM
29 | HXQGTFTSDLSKQKESRAAQDFIEWLKAGGPSSGAPPPS (dSer at 2; K(γE-x75) at 14; C-terminal NH2) [SEQ ID NO: 9] | 2.2 pM
30 | HXQGTFTSDLSKQKESRAAQDFIEWLKAGGPSSGAPPPS (dSer at 2; K(x53) at 14; C-terminal NH2) [SEQ ID NO: 66] | 8.4 pM
31 | HXQGTFTSDLSKQKDSRRAQDFIEWLKNGGPSSGAPPPS (dSer at 2; K(γE-x70) at 14; C-terminal NH2) [SEQ ID NO: 8] | 6.3 pM
32 | HXQGTFTSDLSKQKDSRRAXDFIEWLKAGGPSSGAPPPS (dSer at 2; K(γE-x53) at 14; Aib at 20; C-terminal NH2) [SEQ ID NO: 67] | 15.7 pM
33 | HXQGTFTSDLSKQKESRAAQDFIEWLKAGGPSSGAPPPS (dSer at 2; K(γE-x77) at 14; C-terminal NH2) [SEQ ID NO: 60] | 38.4 pM
34 | HXHGTFTSDLSKQKESRRAQDFIEWLKAGGPSSGAPPPS (dSer at 2; K(γE-x53) at 14; C-terminal NH2) [SEQ ID NO: 73] | 4.1 pM
35 | HXQGTFTSDLSKQKESRAAQDFIEWLKAGGPSSGAPPPS (dSer at 2; K(γE-x70) at 14; C-terminal NH2) [SEQ ID NO: 65] | 5 pM
36 | HXQGTFTSDLSKQKESRRAQDFIEWLKEGGPSSGRPPPS (dSer at 2; K(γE-x53) at 14; C-terminal NH2) [SEQ ID NO: 82] | 11.7 pM
